Results reported in article PMC10493163.

Target: angiotensin-converting enzyme 2 (ACE2), noncovalently adsorbed on (GT)6-SWCNTs (human) (UniProt Q9BYF1)
Test: other fluorescence titration

UniProt Q9BYF1, sequence (Q9BYF1 18-805): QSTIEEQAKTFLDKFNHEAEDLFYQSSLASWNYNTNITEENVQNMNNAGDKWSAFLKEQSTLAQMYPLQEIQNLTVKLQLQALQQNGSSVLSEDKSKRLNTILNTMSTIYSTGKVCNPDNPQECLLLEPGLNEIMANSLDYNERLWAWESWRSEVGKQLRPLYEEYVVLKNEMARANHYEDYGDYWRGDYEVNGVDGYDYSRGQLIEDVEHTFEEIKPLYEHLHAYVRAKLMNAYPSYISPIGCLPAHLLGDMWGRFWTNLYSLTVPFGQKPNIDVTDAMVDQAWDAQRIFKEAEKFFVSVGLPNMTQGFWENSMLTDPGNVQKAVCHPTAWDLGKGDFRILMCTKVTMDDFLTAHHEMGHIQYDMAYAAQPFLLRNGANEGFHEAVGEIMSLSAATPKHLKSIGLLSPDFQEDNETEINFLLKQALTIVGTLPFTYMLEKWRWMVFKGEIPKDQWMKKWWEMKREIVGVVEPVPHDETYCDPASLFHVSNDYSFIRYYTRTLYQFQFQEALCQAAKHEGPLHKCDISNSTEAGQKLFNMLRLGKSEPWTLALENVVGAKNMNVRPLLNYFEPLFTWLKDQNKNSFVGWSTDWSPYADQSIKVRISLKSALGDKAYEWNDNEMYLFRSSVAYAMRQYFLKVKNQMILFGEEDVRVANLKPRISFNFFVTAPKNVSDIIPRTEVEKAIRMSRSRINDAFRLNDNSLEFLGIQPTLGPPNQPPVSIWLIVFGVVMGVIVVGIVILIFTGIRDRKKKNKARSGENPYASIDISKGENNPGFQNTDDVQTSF

“SARS-CoV-1 spike protein receptor-binding domain (domain or fragment)” gave a dF/F0 of the 1130 nm SWCNT emission peak after 90 min, 10 mg/L of 88.4%.
